To fix the notation:
B1: GpH7-B3/GpL16-k0 with A327R introduced into GpH7-B3 (antibody, human IgG1)
heavy: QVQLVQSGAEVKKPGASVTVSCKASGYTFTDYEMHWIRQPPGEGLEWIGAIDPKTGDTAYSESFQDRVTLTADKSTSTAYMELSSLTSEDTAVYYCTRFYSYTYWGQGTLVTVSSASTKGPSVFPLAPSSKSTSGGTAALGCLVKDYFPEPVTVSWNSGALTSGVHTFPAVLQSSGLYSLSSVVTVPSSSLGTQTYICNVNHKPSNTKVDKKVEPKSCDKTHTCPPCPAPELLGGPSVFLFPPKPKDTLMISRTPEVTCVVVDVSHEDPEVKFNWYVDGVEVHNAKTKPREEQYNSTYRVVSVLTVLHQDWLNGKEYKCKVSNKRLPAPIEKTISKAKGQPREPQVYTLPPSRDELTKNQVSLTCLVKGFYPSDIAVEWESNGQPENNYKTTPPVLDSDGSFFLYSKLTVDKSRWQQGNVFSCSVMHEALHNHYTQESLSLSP
light: DIVMTQSPLSLPVTPGEPASISCQASESLVHSNRNTYLHWYLQKPGQSPQLLIYKVSNRFSGVPDRFSGSGSGTDFTLKISRVEAEDVGVYYCSQNTHVPPTFGQGTKVEIE
notes: Anti-glypican-3 human IgG1; constant region B3 (G1d with K439E); Fc variant; also called B3 variant; copies: 2 + 2
B2: GpH7-B3/GpL16-k0 with N325G introduced into GpH7-B3 (antibody, human IgG1)
heavy: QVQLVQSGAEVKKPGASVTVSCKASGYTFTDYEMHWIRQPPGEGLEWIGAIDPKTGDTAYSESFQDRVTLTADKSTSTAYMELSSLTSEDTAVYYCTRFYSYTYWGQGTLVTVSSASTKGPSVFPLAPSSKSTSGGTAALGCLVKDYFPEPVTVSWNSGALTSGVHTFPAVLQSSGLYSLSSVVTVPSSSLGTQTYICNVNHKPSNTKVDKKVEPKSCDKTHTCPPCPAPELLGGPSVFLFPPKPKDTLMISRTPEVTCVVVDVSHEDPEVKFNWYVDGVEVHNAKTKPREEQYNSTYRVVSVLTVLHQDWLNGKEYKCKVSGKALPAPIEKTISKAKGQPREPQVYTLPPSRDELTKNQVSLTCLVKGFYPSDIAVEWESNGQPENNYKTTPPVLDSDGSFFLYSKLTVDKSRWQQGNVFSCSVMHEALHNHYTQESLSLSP
light: DIVMTQSPLSLPVTPGEPASISCQASESLVHSNRNTYLHWYLQKPGQSPQLLIYKVSNRFSGVPDRFSGSGSGTDFTLKISRVEAEDVGVYYCSQNTHVPPTFGQGTKVEIE
notes: as for B1
B3: GpH7-B3/GpL16-k0 with L328N introduced into GpH7-B3 (antibody, human IgG1)
heavy: not shown
light: DIVMTQSPLSLPVTPGEPASISCQASESLVHSNRNTYLHWYLQKPGQSPQLLIYKVSNRFSGVPDRFSGSGSGTDFTLKISRVEAEDVGVYYCSQNTHVPPTFGQGTKVEIE
notes: as for B1
B4: GpH7-B3/GpL16-k0 with L328K introduced into GpH7-B3 (antibody, human IgG1)
heavy: not shown
light: DIVMTQSPLSLPVTPGEPASISCQASESLVHSNRNTYLHWYLQKPGQSPQLLIYKVSNRFSGVPDRFSGSGSGTDFTLKISRVEAEDVGVYYCSQNTHVPPTFGQGTKVEIE
notes: as for B1
B5: GpH7-B3/GpL16-k0 with A327V introduced into GpH7-B3 (antibody, human IgG1)
heavy: not shown
light: DIVMTQSPLSLPVTPGEPASISCQASESLVHSNRNTYLHWYLQKPGQSPQLLIYKVSNRFSGVPDRFSGSGSGTDFTLKISRVEAEDVGVYYCSQNTHVPPTFGQGTKVEIE
notes: as for B1
B6: GpH7-B3/GpL16-k0 with N325F introduced into GpH7-B3 (antibody, human IgG1)
heavy: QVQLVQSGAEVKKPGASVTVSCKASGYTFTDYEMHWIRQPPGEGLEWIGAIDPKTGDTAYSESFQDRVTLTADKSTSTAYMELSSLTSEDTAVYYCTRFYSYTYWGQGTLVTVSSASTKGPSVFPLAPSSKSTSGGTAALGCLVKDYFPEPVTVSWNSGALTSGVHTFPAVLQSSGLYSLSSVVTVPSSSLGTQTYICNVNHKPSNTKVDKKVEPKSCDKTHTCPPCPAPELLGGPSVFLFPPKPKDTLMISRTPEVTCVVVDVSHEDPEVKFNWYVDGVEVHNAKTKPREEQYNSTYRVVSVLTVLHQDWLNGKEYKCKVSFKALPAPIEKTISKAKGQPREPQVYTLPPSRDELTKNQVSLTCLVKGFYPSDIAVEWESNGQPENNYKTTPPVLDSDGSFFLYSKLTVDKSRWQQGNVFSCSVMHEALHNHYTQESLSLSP
light: DIVMTQSPLSLPVTPGEPASISCQASESLVHSNRNTYLHWYLQKPGQSPQLLIYKVSNRFSGVPDRFSGSGSGTDFTLKISRVEAEDVGVYYCSQNTHVPPTFGQGTKVEIE
notes: as for B1
B7: GpH7-B3/GpL16-k0 with N325A introduced into GpH7-B3 (antibody, human IgG1)
heavy: not shown
light: DIVMTQSPLSLPVTPGEPASISCQASESLVHSNRNTYLHWYLQKPGQSPQLLIYKVSNRFSGVPDRFSGSGSGTDFTLKISRVEAEDVGVYYCSQNTHVPPTFGQGTKVEIE
notes: as for B1
B8: GpH7-B3/GpL16-k0 with A327F introduced into GpH7-B3 (antibody, human IgG1)
heavy: not shown
light: DIVMTQSPLSLPVTPGEPASISCQASESLVHSNRNTYLHWYLQKPGQSPQLLIYKVSNRFSGVPDRFSGSGSGTDFTLKISRVEAEDVGVYYCSQNTHVPPTFGQGTKVEIE
notes: as for B1
B9: GpH7-B3/GpL16-k0 with L328P introduced into GpH7-B3 (antibody, human IgG1)
heavy: not shown
light: DIVMTQSPLSLPVTPGEPASISCQASESLVHSNRNTYLHWYLQKPGQSPQLLIYKVSNRFSGVPDRFSGSGSGTDFTLKISRVEAEDVGVYYCSQNTHVPPTFGQGTKVEIE
notes: as for B1
B10: GpH7-B3/GpL16-k0 with N325H introduced into GpH7-B3 (antibody, human IgG1)
heavy: not shown
light: DIVMTQSPLSLPVTPGEPASISCQASESLVHSNRNTYLHWYLQKPGQSPQLLIYKVSNRFSGVPDRFSGSGSGTDFTLKISRVEAEDVGVYYCSQNTHVPPTFGQGTKVEIE
notes: as for B1
B11: GpH7-B3/GpL16-k0 with N325I introduced into GpH7-B3 (antibody, human IgG1)
heavy: not shown
light: DIVMTQSPLSLPVTPGEPASISCQASESLVHSNRNTYLHWYLQKPGQSPQLLIYKVSNRFSGVPDRFSGSGSGTDFTLKISRVEAEDVGVYYCSQNTHVPPTFGQGTKVEIE
notes: as for B1
B12: GpH7-B3/GpL16-k0 with A327S introduced into GpH7-B3 (antibody, human IgG1)
heavy: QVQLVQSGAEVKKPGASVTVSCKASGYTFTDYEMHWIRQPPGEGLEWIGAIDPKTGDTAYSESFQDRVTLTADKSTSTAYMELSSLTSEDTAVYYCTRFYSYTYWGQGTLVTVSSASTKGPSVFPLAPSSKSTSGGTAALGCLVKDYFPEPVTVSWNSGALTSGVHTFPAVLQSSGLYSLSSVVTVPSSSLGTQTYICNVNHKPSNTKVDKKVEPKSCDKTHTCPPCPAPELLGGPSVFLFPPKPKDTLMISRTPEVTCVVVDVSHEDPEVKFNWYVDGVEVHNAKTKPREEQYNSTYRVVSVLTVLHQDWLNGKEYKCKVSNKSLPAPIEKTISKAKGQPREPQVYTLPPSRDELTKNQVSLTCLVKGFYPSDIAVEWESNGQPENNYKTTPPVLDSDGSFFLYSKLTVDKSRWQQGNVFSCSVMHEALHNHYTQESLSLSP
light: DIVMTQSPLSLPVTPGEPASISCQASESLVHSNRNTYLHWYLQKPGQSPQLLIYKVSNRFSGVPDRFSGSGSGTDFTLKISRVEAEDVGVYYCSQNTHVPPTFGQGTKVEIE
notes: as for B1
B13: GpH7-B3/GpL16-k0 with A327W introduced into GpH7-B3 (antibody, human IgG1)
heavy: not shown
light: DIVMTQSPLSLPVTPGEPASISCQASESLVHSNRNTYLHWYLQKPGQSPQLLIYKVSNRFSGVPDRFSGSGSGTDFTLKISRVEAEDVGVYYCSQNTHVPPTFGQGTKVEIE
notes: as for B1
B14: GpH7-B3/GpL16-k0 with A327K introduced into GpH7-B3 (antibody, human IgG1)
heavy: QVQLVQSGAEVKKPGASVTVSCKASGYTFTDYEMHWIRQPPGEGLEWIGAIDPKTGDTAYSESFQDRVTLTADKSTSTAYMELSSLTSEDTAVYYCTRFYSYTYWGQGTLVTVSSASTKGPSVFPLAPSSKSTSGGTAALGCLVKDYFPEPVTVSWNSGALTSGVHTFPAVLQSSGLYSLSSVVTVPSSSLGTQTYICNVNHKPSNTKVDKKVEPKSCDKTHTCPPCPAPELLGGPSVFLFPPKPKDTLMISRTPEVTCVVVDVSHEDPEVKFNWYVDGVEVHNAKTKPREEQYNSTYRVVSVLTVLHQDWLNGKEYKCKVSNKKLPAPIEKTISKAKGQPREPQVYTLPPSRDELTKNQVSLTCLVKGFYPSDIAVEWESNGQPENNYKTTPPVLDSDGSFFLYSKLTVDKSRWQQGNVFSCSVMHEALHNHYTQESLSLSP
light: DIVMTQSPLSLPVTPGEPASISCQASESLVHSNRNTYLHWYLQKPGQSPQLLIYKVSNRFSGVPDRFSGSGSGTDFTLKISRVEAEDVGVYYCSQNTHVPPTFGQGTKVEIE
notes: as for B1
B15: GpH7-B3/GpL16-k0 with A327H introduced into GpH7-B3 (antibody, human IgG1)
heavy: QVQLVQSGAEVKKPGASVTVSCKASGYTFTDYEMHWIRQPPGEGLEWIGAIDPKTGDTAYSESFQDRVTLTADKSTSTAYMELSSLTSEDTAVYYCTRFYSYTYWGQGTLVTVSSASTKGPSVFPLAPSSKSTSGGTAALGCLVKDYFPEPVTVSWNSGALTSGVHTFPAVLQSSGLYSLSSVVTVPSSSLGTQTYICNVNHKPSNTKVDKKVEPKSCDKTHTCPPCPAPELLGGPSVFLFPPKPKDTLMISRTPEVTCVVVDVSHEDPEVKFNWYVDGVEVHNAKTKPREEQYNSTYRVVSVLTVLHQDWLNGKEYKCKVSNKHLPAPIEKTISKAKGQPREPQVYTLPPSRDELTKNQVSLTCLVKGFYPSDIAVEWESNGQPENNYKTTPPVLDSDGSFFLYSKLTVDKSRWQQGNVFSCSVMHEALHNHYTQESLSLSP
light: DIVMTQSPLSLPVTPGEPASISCQASESLVHSNRNTYLHWYLQKPGQSPQLLIYKVSNRFSGVPDRFSGSGSGTDFTLKISRVEAEDVGVYYCSQNTHVPPTFGQGTKVEIE
notes: as for B1
B16: GpH7-B3/GpL16-k0 with L328H introduced into GpH7-B3 (antibody, human IgG1)
heavy: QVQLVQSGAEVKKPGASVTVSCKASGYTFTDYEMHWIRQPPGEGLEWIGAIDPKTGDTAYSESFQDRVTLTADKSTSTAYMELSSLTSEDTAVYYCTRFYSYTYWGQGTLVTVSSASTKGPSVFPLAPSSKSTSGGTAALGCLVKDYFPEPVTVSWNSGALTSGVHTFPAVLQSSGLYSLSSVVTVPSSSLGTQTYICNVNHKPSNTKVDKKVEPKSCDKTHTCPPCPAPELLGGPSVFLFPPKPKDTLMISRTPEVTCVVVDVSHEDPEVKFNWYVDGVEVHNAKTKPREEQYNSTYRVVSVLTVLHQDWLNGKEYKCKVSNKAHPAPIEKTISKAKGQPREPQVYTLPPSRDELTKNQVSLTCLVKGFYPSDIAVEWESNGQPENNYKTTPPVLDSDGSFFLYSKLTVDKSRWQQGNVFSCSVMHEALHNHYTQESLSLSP
light: DIVMTQSPLSLPVTPGEPASISCQASESLVHSNRNTYLHWYLQKPGQSPQLLIYKVSNRFSGVPDRFSGSGSGTDFTLKISRVEAEDVGVYYCSQNTHVPPTFGQGTKVEIE
notes: as for B1
B17: GpH7-B3/GpL16-k0 with A327T introduced into GpH7-B3 (antibody, human IgG1)
heavy: not shown
light: DIVMTQSPLSLPVTPGEPASISCQASESLVHSNRNTYLHWYLQKPGQSPQLLIYKVSNRFSGVPDRFSGSGSGTDFTLKISRVEAEDVGVYYCSQNTHVPPTFGQGTKVEIE
notes: as for B1
B18: GpH7-B3/GpL16-k0 with L328R introduced into GpH7-B3 (antibody, human IgG1)
heavy: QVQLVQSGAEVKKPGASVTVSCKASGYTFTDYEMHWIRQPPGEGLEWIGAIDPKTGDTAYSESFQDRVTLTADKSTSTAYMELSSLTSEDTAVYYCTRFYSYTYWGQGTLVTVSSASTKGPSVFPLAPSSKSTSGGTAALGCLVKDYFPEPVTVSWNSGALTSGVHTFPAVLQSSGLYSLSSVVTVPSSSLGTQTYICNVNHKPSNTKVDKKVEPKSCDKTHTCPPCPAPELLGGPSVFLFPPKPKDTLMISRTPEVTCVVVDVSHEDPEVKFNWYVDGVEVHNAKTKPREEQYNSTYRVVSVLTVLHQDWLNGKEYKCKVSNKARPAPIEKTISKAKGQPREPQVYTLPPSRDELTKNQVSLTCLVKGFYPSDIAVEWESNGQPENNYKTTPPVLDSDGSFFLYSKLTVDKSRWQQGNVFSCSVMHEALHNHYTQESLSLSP
light: DIVMTQSPLSLPVTPGEPASISCQASESLVHSNRNTYLHWYLQKPGQSPQLLIYKVSNRFSGVPDRFSGSGSGTDFTLKISRVEAEDVGVYYCSQNTHVPPTFGQGTKVEIE
notes: as for B1
B19: GpH7-B3/GpL16-k0 with A327Q introduced into GpH7-B3 (antibody, human IgG1)
heavy: not shown
light: DIVMTQSPLSLPVTPGEPASISCQASESLVHSNRNTYLHWYLQKPGQSPQLLIYKVSNRFSGVPDRFSGSGSGTDFTLKISRVEAEDVGVYYCSQNTHVPPTFGQGTKVEIE
notes: as for B1
B20: GpH7-B3/GpL16-k0 with A327L introduced into GpH7-B3 (antibody, human IgG1)
heavy: not shown
light: DIVMTQSPLSLPVTPGEPASISCQASESLVHSNRNTYLHWYLQKPGQSPQLLIYKVSNRFSGVPDRFSGSGSGTDFTLKISRVEAEDVGVYYCSQNTHVPPTFGQGTKVEIE
notes: as for B1
B21: GpH7-B3/GpL16-k0 with A327M introduced into GpH7-B3 (antibody, human IgG1)
heavy: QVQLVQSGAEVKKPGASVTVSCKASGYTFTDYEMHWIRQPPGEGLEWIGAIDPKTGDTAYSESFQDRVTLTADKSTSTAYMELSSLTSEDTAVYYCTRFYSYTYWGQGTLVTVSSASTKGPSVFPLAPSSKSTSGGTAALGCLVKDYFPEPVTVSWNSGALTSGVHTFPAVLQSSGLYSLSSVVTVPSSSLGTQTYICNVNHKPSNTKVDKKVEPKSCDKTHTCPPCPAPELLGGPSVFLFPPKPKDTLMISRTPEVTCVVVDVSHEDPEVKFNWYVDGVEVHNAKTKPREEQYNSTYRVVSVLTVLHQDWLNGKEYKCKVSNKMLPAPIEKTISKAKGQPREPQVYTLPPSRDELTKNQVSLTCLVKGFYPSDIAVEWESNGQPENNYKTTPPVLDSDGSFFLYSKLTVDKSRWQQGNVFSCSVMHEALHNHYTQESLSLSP
light: DIVMTQSPLSLPVTPGEPASISCQASESLVHSNRNTYLHWYLQKPGQSPQLLIYKVSNRFSGVPDRFSGSGSGTDFTLKISRVEAEDVGVYYCSQNTHVPPTFGQGTKVEIE
notes: as for B1
B22: GpH7-B3/GpL16-k0 with A327P introduced into GpH7-B3 (antibody, human IgG1)
heavy: not shown
light: DIVMTQSPLSLPVTPGEPASISCQASESLVHSNRNTYLHWYLQKPGQSPQLLIYKVSNRFSGVPDRFSGSGSGTDFTLKISRVEAEDVGVYYCSQNTHVPPTFGQGTKVEIE
notes: as for B1
B23: GpH7-B3/GpL16-k0 with L328G introduced into GpH7-B3 (antibody, human IgG1)
heavy: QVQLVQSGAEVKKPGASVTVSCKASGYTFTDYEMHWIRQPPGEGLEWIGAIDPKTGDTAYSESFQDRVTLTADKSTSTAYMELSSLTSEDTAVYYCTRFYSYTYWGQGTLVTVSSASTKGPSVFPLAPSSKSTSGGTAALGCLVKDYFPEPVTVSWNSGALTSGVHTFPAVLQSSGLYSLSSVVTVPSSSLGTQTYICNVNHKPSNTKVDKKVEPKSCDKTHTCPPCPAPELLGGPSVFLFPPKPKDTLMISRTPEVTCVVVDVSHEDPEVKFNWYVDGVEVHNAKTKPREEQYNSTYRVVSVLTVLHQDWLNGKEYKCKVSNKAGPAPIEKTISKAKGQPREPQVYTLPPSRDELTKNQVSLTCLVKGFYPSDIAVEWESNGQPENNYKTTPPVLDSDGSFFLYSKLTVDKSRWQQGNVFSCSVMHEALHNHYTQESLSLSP
light: DIVMTQSPLSLPVTPGEPASISCQASESLVHSNRNTYLHWYLQKPGQSPQLLIYKVSNRFSGVPDRFSGSGSGTDFTLKISRVEAEDVGVYYCSQNTHVPPTFGQGTKVEIE
notes: as for B1
B24: GpH7-B3/GpL16-k0 with A327Y introduced into GpH7-B3 (antibody, human IgG1)
heavy: not shown
light: DIVMTQSPLSLPVTPGEPASISCQASESLVHSNRNTYLHWYLQKPGQSPQLLIYKVSNRFSGVPDRFSGSGSGTDFTLKISRVEAEDVGVYYCSQNTHVPPTFGQGTKVEIE
notes: as for B1
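Further: receptor response divided by the antibody amount captured on the chip before comparison with the reference antibody, measured at 25 °C in HBS-EP+ running buffer.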

T1 sequence (P08637 other isoform, or with tags, fused parts or gaps limits assumed): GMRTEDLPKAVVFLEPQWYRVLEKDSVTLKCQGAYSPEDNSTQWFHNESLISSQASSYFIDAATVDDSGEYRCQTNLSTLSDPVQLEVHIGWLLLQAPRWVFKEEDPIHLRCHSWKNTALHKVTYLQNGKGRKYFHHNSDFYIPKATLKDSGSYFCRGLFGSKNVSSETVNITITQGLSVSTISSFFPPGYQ

The assay addresses T1, human FcγRIIIa(F) (human, UniProt P08637 17-208, limits assumed).
T1 construct: also called FcgRIIIaF; FcγRIIIa allotype F158
The assay is described as follows: SPR (Biacore), captured antibody, FcγR analyte; bound amount relative to GpH7-B3/GpL16-k0 x100. (In general: SPR reads the build-up and loss of mass on a sensor chip optically.)
Procedure: Interaction between each modified antibody and Fcγ receptor prepared in the manner described above was analyzed using the Biacore T100 (GE Healthcare), Biacore T200 (GE Healthcare), Biacore A100 or Biacore 4000. HBS-EP+ (GE Healthcare) was used for the running buffer, and measurements were carried out at 25° C. The chips used were chips in which antigen peptides, Protein A (Thermo Scientific), Protein A/G (Thermo Scientific) or Protein L (ACTIGEN or BioVision) were immobilized on the Series S Sensor Chip CM5 (GE Healthcare) or Series S Sensor Chip CM4 (GE Healthcare) by amine coupling, or chips in which preliminarily biotinylated antigen peptides were allowed to interact and then immobilized on the Series S Sensor Chip SA (certified) (GE Healthcare). The target antibodies were captured on these sensor chips, Fcγ receptor diluted with the running buffer was allowed to interact, followed by measurement of the amount of bound antibody. The amounts bound were compared between antibodies. However, since the amount of Fcγ receptor bound depends on the amount of captured antibody, the values used for comparison were first corrected by dividing the amount of Fcγ receptor bound by the captured amount of each antibody. Through reaction with 10 mM glycine-HCl at pH 1.5, the sensor chips were regenerated by washing off antibody captured on the sensor chips and used repeatedly.
Binding strength was evaluated according to the following method based on the results of analyzing the interaction with each FcγR. […] That value was then further multiplied by 100, and the resulting value was used as an indicator of relative binding activity to each FcγR.
In the case of B1, the relative binding activity is 1 % of GpH7-B3/GpL16-k0.
As for B2, the figure is 1 % of GpH7-B3/GpL16-k0; as for B3, 22 % of GpH7-B3/GpL16-k0.
In the case of B4, the relative binding activity is 0 % of GpH7-B3/GpL16-k0.
As for B5, the figure is 18 % of GpH7-B3/GpL16-k0.
In the case of B6, the relative binding activity was -1 % of GpH7-B3/GpL16-k0.
With B7, the relative binding activity is 6 % of GpH7-B3/GpL16-k0.
B8: the relative binding activity is 16 % of GpH7-B3/GpL16-k0.
For B9, the relative binding activity is 3 % of GpH7-B3/GpL16-k0.
As for B10, the figure is 37 % of GpH7-B3/GpL16-k0; as for B11, 1 % of GpH7-B3/GpL16-k0.
For the molecule B12, the relative binding activity was 42 % of GpH7-B3/GpL16-k0.
Regarding B13, the relative binding activity was 17 % of GpH7-B3/GpL16-k0.
As for B14, the figure is 5 % of GpH7-B3/GpL16-k0; as for B15, 14 % of GpH7-B3/GpL16-k0; as for B16, 13 % of GpH7-B3/GpL16-k0.
Regarding B17, the relative binding activity was 10 % of GpH7-B3/GpL16-k0.
B18: the relative binding activity was -1 % of GpH7-B3/GpL16-k0.
For B19, the relative binding activity is 18 % of GpH7-B3/GpL16-k0.
Regarding B20, the relative binding activity was 13 % of GpH7-B3/GpL16-k0.
B21: the relative binding activity is 24 % of GpH7-B3/GpL16-k0.
Take B22: the relative binding activity is 20 % of GpH7-B3/GpL16-k0.
As for B23, the relative binding activity is 8 % of GpH7-B3/GpL16-k0.
As for B24, the figure is 13 % of GpH7-B3/GpL16-k0.

For the origin of these results see patent publication US20140105889A1 (published 2014).
